# Test: label from the status in PepcDB records
row,Sequence,protein production
1,MKRFINRRQELDFLEKQYREQNSSLVIIYGRRRIGKTALIKKFIEDKPAIYFLASEEAESQNIEYYKKAVGNFLKNPLIERLSGVGWDDIFDVIINAKINKKTVIVFDEFQNLCKTNPAFASIVQRIWDEKLKNHNFMLILSGSLVGMMQEHALSYSSPLYGRRTGQIKLKQFSFKEAKEFFPEASDDQFIWIYSIVGGVPKYLEMFKFEGDIYKAIEENILSRQSFLYEEPLFLLEKEVHEVGSYFSIIKSIALGNHKLSQIAQSLSTAQTKLTKYLNTLIDLDIVRREVPVTEEYPEKSKRGLYFINDNFIDFWFKFVYPYREQLELDNTEYVIENIKSKIVTNHISFIYEEVCRQILMDLIKTKEIDIQLDRIGKWWDSKSEIDIVGISKNTGHVVFGECKYSQRVVDIDVFFNLKKKAENIKVFPEQKELYILFSRTGFSERLLEFAKETENLILIKFP,failed
2,MSHRSPSVTPAVSVLIPAWNAVRHLPAALDGLLSQTFQDWEAVVVDDGSQDETPALLAAYAARDARIRPLHVEHGGIVHALNHGLLHVRGRHVARMDADDTCHPERLALQCHALDNAPHLGLVASRVTFGGDAAQCGGFVRYVDWTNSLLCHEDIALGRFRESPLVHPSVMFRRELIDRFGPYANGPFPEDYELWLRWLEAGVRMEKLPEHLLVWNDPPGRLTRTHDNYAEAGFVALRTRYLARWLCAHNPQHPDVWVIGAGKASRRRARPLCEHGIRIRAWVDIDPHKIGNIVEGLPVVGREAMPAPGQGFMLAFLAGHGAAEELELFLHGAGYLPGQDYLLASLEHHHHHH,not failed
3,MDRFLVKGAQGGLLRKQEEQEPTGEEPAVLGGDKESTRKRPRGEAPGNGGHSAGPSWRHIRAEGLDCSYTVLFGKAEADEIFQELEKEVEYFTGALARVQVFGKWHSVPRKQATYGDAGLTYTFSGLTLSPKPWIPVLERIRDHVSGVTGQTFNFVLINRYKDGCDHIGEHRDDERELAPGSPIASVSFGACRDFVFRHKDSRGKSPSRRVAVVRLPLAHGSLLMMNHPTNTHWYHSLPVRKKVLAPRVNLTFRKILLTKK,failed
4,MKGLKALILVILVLGLVVGSVAAAPEKKVEQVRNVEKNYGLLTPGLFRKIQKLNPNEEISTVIVFENHREKEIAVRVLELMGAKVRYVYHIIPAIAADLKVRDLLVISGLTGGKAKLSGVRFIQEDYKVTVSAELEGLDESAAQVMATYVWNLGYDGSGITIGIIDTGIDASHPDLQGKVIGWVDFVNGRSYPYDDHGHGTHVASIAAGTGAASNGKYKGMAPGAKLAGIKVLGADGSGSISTIIKGVEWAVDNKDKYGIKVINLSLGSSQSSDGTDALSQAVNAAWDAGLVVVVAAGNSGPNKYTIGSPAAASKVITVGAVDKYDVITSFSSRGPTADGRLKPEVVAPGNWIIAARASGTSMGQPINDYYTAAPGTSMATPHVAGIAALLLQAHPSWTPDKVKTALIETADIVKPDEIADIAYGAGRVNAYKAINYDNYAKLVFTGYVANKGSQTHQFVISGASFVTATLYWDNANSDLDLYLYDPNGNQVDYSYTAYYGFEKVGYYNPTDGTWTIKVVSYSGSANYQVDVVSDGSLSQPGSSPSPQPEPTVDAKTFQGSVHYYYDRSDTFTMTVNSGATKITGDLVFDTSYHDLDLYLYDPNQKLVDRSESSNSYEHVEYLNPAPGTWYFLVYAYYTYGWAYYELTAKVYYG,failed
5,MEMTKVTGKFDVKLTPENAYATGVGGVNLGRMALDKTFYGELEARSQGEMLSAMTAVKGSAGYVAIEQVVGKLCGRQGSFVLQHFGIMTDGQNRLHLEVVPHSGAGELTGLYGTMAISIENGQHFYEFSFCFEPASEVEG,not failed
6,MKENKLDYIPEPMDLSLVDLPESLIQLSERIAENVHEVWAKARIDEGWTYGEKRDDIHKKHPCLVPYDELPEEEKEYDRNTAMNTIKMVKKLGFRIEKED,not failed
7,MVPTPKPVVDRMLELADVDETDVLYDLGSGDGRIVIRAARTHGARGVGIEIDPDLVKKARKNAKEAGVADLVEFRQGDLFEADISEATVVTLYLLPSVNQKLRPILFEQLSPGTPVVSHDFDMGRWAPDRTVDLEGDTVYRWTIPLEHHHHHH,failed
8,MWNIATAAATLLVAFAATRAYAADIGYLAPPGVAANEFPSPQRPVARIVSPRRASEEHRDALNEAGQIARVLELKPGMTVGDIGAGSGYHTVRLSYLVAPAGSVVAQDVTRDYLIELARRTKLLKLTNVQFALGEPHDPRLPASSLDAAILVHMYHEIAQPYAFLYNLAPALKQGARVGIVDLELPTSKHGTPIELLRCELTAVGYREVATYKLEGDGGYLAVFSPPEVAGRKSPRDIVACRDPAGTR,failed
9,MKRENIKTILLTVLVVISLVFTWGIWTFQPNFSEGSSSTESTVRVKHKIEKTTQKLSETVRPRDMFIHDDGAHYKVDDNALYEEIWSDLPHWDVKGIKDISDQYDKAGFKSWFYGIGGSEAKLDLQFSDTIPIDIFQTLFKWSNQSFEYSSFDHILIPFNETKANKKIYLVSYSKQLILEVTVESANYRNIMNDLKNRQSNMPAFSLFSIGSKKEFLLPNKPLTMDKKEFVTESIKTNTFKQALFSDPSIVREDSNYNNRNVLTDGISRLDVNLSQRQVQFQQRNLVQSTSYQTGELIKKSQKYLEDTGSWTDHYQFFNINDSQQLSFYIFMDQIPVINSTAKPFGATSAITVQWANDDILSYKRPNYSLGTNPIKTSETELMGGSEVKMLLSKQTAYDTDKIDQIFLAYQLVSTSTNDDPLVELEPVWAMKVNGKIVPITKDLLRKEGANSGVE,failed
10,TAMRVSPHHPAPTPNPRASLNHSTAFNPQPQSQMQDTRQIQPSPPWSYDQSYQYLGSIASPSVHPATPISPGRASGMTTLSAELSSRLSTAPDLTAFSDPRQFPALPSISDP,failed
11,MAEYEDRYWTSSDGLRLHFRAYEGDISRPPVLCLPGLTRNARDFEDLATRLAGDWRVLCPEMRGRGDSDYAKDPMTYQPMQYLQDLEALLAQEGIERFVAIGTSLGGLLTMLLAAANPARIAAAVLNDVGPEVSPEGLERIRGYVGQGRNFETWMHAARALQESSGDVYPDWDITQWLRYAKRIMVLGSSGRIAFDYDMKIAEPFEAPVGATPQVDMWPLFDALATRPLLVLRGETSDILSAQTAAKMASRPGVELVTLPRIGHAPTLDEPESIAAIGRLLERV,not failed
12,MRRLNLILLLSAVTAALAFVISCKETNAERLEKMCGEWVSTGGKPPFTLWEEDGRYRVTVMHRNHTGGSEAETYLVRETEGVLFIETGFAVMMDYDREKDRIRLSPGGEYRRKSDGTLKQ,failed
13,MPNTTAKKDYTKYSEKQLFNLIHQLERKIKKMQNDRISFKEKMAKELEKRDQNFKDKIDALNELLQKISQAFDDKRDCCLGHEIPNIETQQAMRDALNGINLTQIDSLDDFTNELKRENSKGFENVCFSV,failed
14,MLSIMRRPIAALAVLLAAAVSIPAQAQFSDSYKFLEAVRKKEGDKVTEALNEPGTQIVNTKDYTTGQTGLHIVVARRDLVWVQFLVAKGANVNARDNRGVTPLVLAADIGFIEGVDELIRSGARVDEANNTGETPLISAVHRRDLALVRMLIKAGANPDRPDNSGRSARDYAMLEGKGSPLLGEIEKATKDAKAAGPQKTYGPSF,failed
15,MYKLISPHLSGHAMWKEALEEFGSGPIHGSGYFENYLPIDYSEAGFHHYLKERTDAADPSVPPPEGFVHCSYFWIVDDDDVLVGFLALRHELNQHLLEVAGHIGYGVRPSARRKGAATAALKLGVHEAQALGIDKVLLCVAGDNEASRNVIEKCGGVYESTIRGMRRYWIATDS,failed
16,RTEAGDAYYSKFANNTPLPALMVSRKKFGSSYVYDKSYKTWDVPIAEQMEQKAKINIFAVAEYTDTQKIKVTVKGKILEGNTLPKSMVQVYLLEDKLIAPQVDGNTTVENYEHNHVLRGAVNGIWGEEFVNLKDYLYTYAVEPLSGMSFVAENYSIVAFVYDVQTFEVYDVVHVKINPQSDGK,not failed
17,MSLSPSARRVQGALETRGFGHLKVVELPASTRTAKEAAQAVGAEVGQIVKSLVFVGEKGAYLFLVSGKNRLDLGKATRLVGGPLRQATPEEVRELTGFAIGGVPPVGHNTPLPAYLDEDLLGYPEVWAAGGTPRALFRATPKELLALTGAQVADLKEG,not failed
18,MASLVAYDDSDPESEADPARSGDAAGQMSDVSGISRPEVEFASSTGVTKEGAQHTGNSPYEDPGKQRLPLARLWRSDPGSCPSQRLQWPSKEPDSTFPTSEPPGPSLWMNRAPVGHVPLAAACFKPLKPAWDAFTPSHTHSKLESTAGNASSSQRKRGEACVLPYIPKRLRQLQVLNPEATGGRDVEPPGSPAGCAPAPLCVAPTVSEFIQPYLNSQYRETTVPKKVLFHLRGHRGPVNSIQWCPVFSKSHMLLSASMDKTFKVWNAVDSGHCLQTYSVHSEAVRAARWSPCGRRILSGGFDFALHLTDLETGTQVFSGHSDFRVTTLKFHPKDHNVFLCGGFSSEIKAWDMRTGKVVKGYKATIQQTLDILFLQEGSEFLSSTDASTRDSADRTIIAWDFRTAAKISNQIFHERYTCPSLALHPREPVFLAQTNGNYLALFSSVWPYRMSRRRRYEGHKVEGYAVGCECSPCGDLLVTGSADGRVLMFSFRTASRACTLQGHTQACLGTTYHPVLPSVLGTCSWGGDIKIWH,failed
19,MGTMNVVGLAIYLYAGFLSFIFGFISLYAFIKYSKLERKNKEIIYVYVDNLKNFSPYMFYSILLTFTIVFVIFALFICFVFNFDLYLGLTMLFSYFLIIYLFCFKKYRVEIYKDGFYGVFQN,failed
20,SSGNHIFKGRAAGIAVNENGKGLITENVIRENQWGGVDIRRGGIPVLRSNLICFGYSDGVVVGDEGKGLIEGNTIYANKGCGVWMMSSSLPHVTSNHVSYNGLYGVAVFSQKDGSSELPRGHRAQENFSEDGDAILWETELEKEDDPLRRPITIALVESNSINHNGASGLYVQSSEALHVITNVIHANGDRGITVAQSSQPTRVANNSISCNRQSGVKVEAQCKVELRGNGIYDNRGHGIITKGDSTIVIENDIIGNRGSGLQLLPRSDTKVIKNRIHSFRAYGIAVRGRAKALVQENIIFQGKTSKTIFQQISNNRECIMQNNKFLVFKKKSDTWR,not failed
21,PPGPCLPPRLQGRPKAKEIQLRWGPPLVDGGSPISCYSVEMSPIEKDEPREVYQGSEVECTVSSLLPGKTYSFRLRAANKMGFGPFSEKCDITTAPG,not failed
22,MEYHLQTPLKFEDIEKLNAGDIVYISGEILTARDEAHARILEMEERGEELPFSLEGAVIYHCGPLMQQTESGWKVISAGPTTSGRMSKMTPPLLKTHKVRAIIGKGGMKNVADSLKSCCVYLAYTGGCAALAAELIKDVKTVHWPDLGMPEAVWILRVEKFGPLIVGIDAKGKDIFSEVREKAEKALEELQK,failed
23,MIRSLLLASAACALAFPAAAETVAIVNARLEPVSSPAIPNGTLVIKDGKIAALGASIQVPAGARVIDAKGGVVTPGLIAPSSNLGASEISGVRETRDDGTGSALSAAFDISYGVNPASTFLGLARDGGITGSAVTPVLSGTGGGAHEHADDGVVEEMTAGAHGDGDPPLFGGQAAFIRLKAGSPDIVEARKLAVTVSLGESGARAAGGSRGANLVLLRSALEDARAFASRRAAFEQGATRDFGLSRLDLQALIPVVQGKTPLLIRVSRAADIRQALKFAAEERIKIVLEGVEEGWMVADEIAKAGVPVILDPQDDLPGSFETLGSRLDNAARLHAAGVSVAINGSRDFNNLRQERLNAGLAVAHGLPYPAALAAVTLVPARIWGQADKVGSLEVGKLADVVVWNGDPLETTSWPTAVLIGGVEQPKDGRHEQLKARYAAGDQNGYPPAYR,failed

# Source: a protein production outcome set (Wang et al. 2014)
